Laboratory results: patent publication WO2019198731A1

Biological target: three HER2 antigens (HER2 fragment proteins used for panning)
Experiment: monoclonal phage ELISA on immobilised HER2 antigens

B1: H44 clone (VHH displayed on monoclonal M13 phage) (VHH)
VHH: QVQLVESGGTLVQAGGSLRLSCAASGRTFSSYAMGWFRQAPGKEREFVAAIRLKTDYSDSVKGRFTISRDNAKNTVYLQMNSLKPEDTAVYYCAAWLRRGYGASWYLTGADPRYWGRGTRVTVSS
With B1 the abs. at 450 nm was over 1.5.
